“Also recorded” adds a separate entry of the source.
Assays:
[1] = tested on: olfactory marker protein (OMP); assay: OMP expression by Western blot in cells in non-permissive conditions; type: cell-based, mouse; conditions: 37° C., heterogeneous cell cultures, 15 μg protein per lane
Experimental: FIG. 2C. Effects of EGF, NGF, BDNF and NT-3 on OMP expression as determined by Western blot. Cells were maintained in non-permissive conditions at 37° C. in the absence of growth factors (C) or in presence of EGF (E), NGF (N), BDNF (B) or NT-3 (3). Samples were isolated from the heterogeneous cell cultures and from olfactory tissue (T), and were separated on a SDS-polyacrylamide gel (15 μg protein per lane). OMP is a 19 kD protein and, in situ, is expressed only in mature olfactory receptor neurons. OMP was not detected in control cells (C), cultured in the absence of growth factors or in cells incubated in the presence of EGF.
assayed by Western blot detection of olfactory marker protein (OMP), a marker of mature olfactory receptor neurons (Margolis, 1988).
Cells were always maintained in permissive culture conditions except when attempts were made to obtain a differentiated phenotype through transgene inactivation. In this case, cells were incubated in non-permissive culture conditions, i.e. at 37° C. in γ-interferon-free media for seven days, before the effects of transgene inactivation were determined. The effects of EGF, NGF, BDNF and NT-3 in promoting cell maturation/differentiation were assessed and, based on those experiments, BDNF and NT-3 were routinely added to the culture medium for cells in non-permissive culture conditions. In both culture environments, the air was kept humidified and contained 5% CO2.
Cells were scraped into a cold isolation buffer containing 20 mM Na(N-tris[hydroxymethyl]methyl-2-aminoethanesulfonic acid) (Na TES), 10 mM mannitol and 1% Triton X-100 at pH 7.4. The isolation buffer was supplemented with phenylmethylsulfonyl fluoride (30 μg.ml^−1), leupeptin (2 μg.ml^−1), benzamidine (16 μg.ml^'1), pepstatin (2 μg.ml^−1), and lima bean trypsin inhibitor (50 μg.ml^−1) to prevent protease activity. After five freeze/thaw cycles, cell extracts were centrifuged at 2,000 g for 5 minutes to pellet nuclei and cell debris. […]

[2] = tested on: NST+ cells in the heterogeneous culture; assay: Counting NST+ cells (anti-NST labeling) in heterogeneous olfactory cell cultures with growth factors; type: cell-based, mouse; conditions: for Normalized # of NST+ Cells: 100 ng.ml^−1
Experimental: FIG. 2A. Interferon causes a significant, dose-dependent increase in the number of NST+ cells in the heterogeneous culture, with an EC50 of 0.4 U.ml^−1. Cells were incubated at 33° C. and were stained with anti-NST and rhodamine-coupled secondary antibodies seven days after plating. Cell counts were obtained from ten randomly selected areas in each experiment. Data were normalized to the mean number of NST+ cells in the absence of interferon and each point represents the mean ±S.E.M from three experiments.
FIG. 2B. EGF (•) and NGF (□) both have mitogenic effects in permissive conditions over and above the effect of interferon. NST+ cells were counted as described in (A) and were normalized to baseline levels in the presence of interferon (40 U.ml^−1). […] Except for the presence of interferon (40 U.ml^−1), all experimental conditions were as in A.
To determine the optimal conditions for cell survival, growth, differentiation and maturation, cells were cultured in permissive and non-permissive conditions in the presence of interferon, EGF, NGF, BDNF and NT-3. […] The effects of EGF, NGF, BDNF and NT-3 on cell maturation in non-permissive culture conditions were
To keep the amount of expressed TAg to the minimum required for immortalization (Noble et al., 1995), heterozygous offspring from homozygous male H-2K^b-tsA58 transgenic and C57B1 female mice (Charles River Laboratories, Wilmington Mass., and Jackson Laboratory, Bar Harbor, Me., respectively) were used to generate the conditionally immortal neuronal cell culture. Cells were isolated in a procedure modified from a previously established technique (Ronnett et al., 1991). Briefly, post-natal day 1-3 animals were decapitated and the heads were sectioned longitudinally. The olfactory epithelium and nasal septum were removed and placed in an Eppendorf tube containing 500 μl culture medium. The culture medium consisted of Minimum Essential Medium in which the L-valine has been replaced by D-valine (MDV). This was supplemented with 10% fetal bovine serum (FBS), 4 mM glutamine, kanamycin (100 μg.ml^−1), gentamicin (50 U.ml^−1) and amphotericin B (2.5 μg.ml^−1; all from Gibco BRL, Gaithersburg, Md.). The MDV medium was chosen because fibroblasts lack D-amino acid oxidase and the reduction of L-valine inhibits fibroblast survival and growth (Gilbert et al., 1986). Tissue was centrifuged at low speed for two minutes and then most of the medium was removed. The cell pellet was chopped briefly with a pair of fine-point scissors before being resuspended in supplemented cell culture medium. The resultant cell clumps and cell suspension were plated out onto 2- or 4-chamber glass slides (Nunc, Naperville, Ill.) or plastic dishes (Fisher Scientific, Pittsburgh, Pa.). To enhance ORN adhesion, all cell culture materials were pretreated with laminin (0.125 mg.ml^−1 in serum-free media, Collaborative Biomedical Products, Bedford, Mass.) for at least 12 hours, prior to plating. Cells were maintained in culture at 33° C. (the permissive temperature for the SV40 TAg) and, to stimulate transcription of the transgene, the culture medium was supplemented with murine γ-interferon (40 U.ml^−1, Genzyme, Cambridge, Mass.). Provisionally, in permissive conditions, the cell culture medium was supplemented with epidermal growth factor (EGF, 20 ng.ml^−1, Gibco BRL) and 2.5 S nerve growth factor (NGF, 10 ng.ml^−1, Gibco BRL) before thorough characterizations of their effects were made in later experiments.
To determine optimum conditions for cell survival, growth, differentiation or maturation, numerous combinations of culture conditions were tested. These included i) removal of the olfactory epithelium from newborn, 4-week-old, and sexually mature animals, ii) subjecting tissue to digestion by trypsin (Gibco BRL, 0.5 g.l^−1 for 60 minutes at 37° C.), iii) addition of growth factors to the culture medium and iv) the use of diverse culture media. […]

B1: NT-3: neurotrophin-3 (Peprotech) (protein, UniProt P20783 139-257, looked up)
Neurotrophin-3: YAEHKSHRGEYSVCDSESLWVTDKSSAIDIRGHQVTVLGEIKTGNSPVKQYFYETRCKEARPVKNGCRGIDDKHWNSQCKTSQTYVRALTSENNKLVGWRWIRIDTSCVCALSRKIGRT
modifications: Neurotrophin-3
OMP expression detected by Western blot (in words) [1]: significant expression of OMP could be observed; also recorded: greater from cells incubated with NT-3 than with BDNF; also recorded: most readily detected
Normalized # of NST+ Cells ([2]; 33° C., in the presence of 40 U.ml^−1 interferon, normalized to that point): 0.8 ± 0.1
Normalized # of NST+ Cells ([2]; 37° C.): 1.4 ± 0.1
Effect on the number of NST+ cells (in words) ([2]; permissive conditions (33° C.)): no effect

— patent US20020048812A1, “Isolation and in vitro differentiation of conditionally immortalized murine olfactory receptor neurons” (priority 2000, published 2002)
